{"source": "patent US20230398218A1", "about": "(published 2023)", "key": {"HLA-A01.01 [1]": {"molecular_target": "T1, HLA-A01.01 (human)", "T1 construct": "in the stability assay the heavy chain is biotinylated and b2m iodine-labeled", "assay": "pMHC-I complex dissociation at 37 C, radiolabeled b2m"}, "HLA-A03.01 [2]": {"molecular_target": "HLA-A03.01 (human)", "assay": "pMHC-I complex dissociation at 37 C, radiolabeled b2m"}, "HLA-A01.01 [3]": {"molecular_target": "T1, HLA-A01.01", "assay": "competition with radiolabeled reference peptide on prepared MHC class I"}, "HLA-A11.01": {"molecular_target": "HLA-A11.01 (human)", "assay": "competition with radiolabeled reference peptide on prepared MHC class I"}, "HLA-A03.01 [4]": {"molecular_target": "HLA-A03.01 (human)", "assay": "competition with radiolabeled reference peptide on prepared MHC class I"}, "HLA-A24.02 [5]": {"molecular_target": "HLA-A24.02 (human)", "assay": "pMHC-I complex dissociation at 37 C, radiolabeled b2m"}, "HLA-A24.02 [6]": {"molecular_target": "HLA-A24.02 (human)", "assay": "competition with radiolabeled reference peptide on prepared MHC class I"}, "HLA-B08.01 [7]": {"molecular_target": "HLA-B08.01 (human)", "assay": "pMHC-I complex dissociation at 37 C, radiolabeled b2m"}, "[8]": {"molecular_target": "T2, HLA-A*03:01 expressed in 293T or SW620 cells (human)", "T2 construct": "whole, on cells; HLA of cells from which peptides were eluted for MS/MS", "assay": "targeted MS/MS (PRM) of peptides eluted from HLA-peptide complexes, 293T cells", "description": "To assess whether antigens could be processed and presented from the larger polypeptide context, peptides eluted from HLA molecules isolated from cells expressing the genes of interest were analyzed by tandem mass spectrometry (MS/MS).\nFor analysis of presentation of RAS neoantigens, cell lines were utilized that have RAS mutations naturally or were lentivirally transduced to express the mutated RAS gene. HLA molecules were either isolated based on the natural expression of the cell lines or the cell lines were lentivirally transduced or transiently transfected to express the HLA of interest. […] Eluted peptides were then analyzed by targeted MS/MS with parallel reaction monitoring (PRM)."}, "HLA-A02.01 [9]": {"molecular_target": "HLA-A02.01 (human)", "assay": "competition with radiolabeled reference peptide on prepared MHC class I"}, "HLA-A02.01 [10]": {"molecular_target": "HLA-A02.01 (human)", "assay": "pMHC-I complex dissociation at 37 C, radiolabeled b2m"}, "HLA-B08.01 [11]": {"molecular_target": "HLA-B08.01 (human)", "assay": "pMHC-I complex dissociation at 37 C, radiolabeled b2m", "remark": "listed apart in the source"}, "HLA-B08.01 [12]": {"molecular_target": "HLA-B08.01 (human)", "assay": "competition with radiolabeled reference peptide on prepared MHC class I"}}, "note": "Like-named read-outs stand apart in the source and are kept apart here.", "data": [{"binder": "MANGSLLNY (also called BTK, C481S peptide)", "values": [{"measurement": "Stability (half-life (hr.))", "setting": "HLA-A01.01 [1]", "value": 13, "unit": "min"}, {"measurement": "Stability (half-life (hr.))", "setting": "HLA-A03.01 [2]", "value": 14.3, "unit": "min"}, {"measurement": "Affinity", "setting": "HLA-A01.01 [3]", "value": 439, "unit": "nM"}, {"measurement": "Affinity", "setting": "HLA-A11.01", "value": 536, "unit": "nM"}, {"measurement": "Affinity", "setting": "HLA-A03.01 [4]", "value": 35.6, "unit": "nM"}]}, {"binder": "EYMANGSLL (also called BTK, C481S peptide)", "values": [{"measurement": "Stability (half-life (hr.))", "setting": "HLA-A24.02 [5]", "value": 343, "unit": "min"}, {"measurement": "Affinity", "setting": "HLA-A24.02 [6]", "value": 4.96, "unit": "nM"}]}, {"binder": "YMANGSLLNY (also called BTK, C481S peptide)", "values": [{"measurement": "Stability (half-life (hr.))", "setting": "HLA-A01.01 [1]", "value": 52, "unit": "min"}, {"measurement": "Stability (half-life (hr.))", "setting": "HLA-A03.01 [2]", "value": 16.7, "unit": "min"}, {"measurement": "Affinity", "setting": "HLA-A01.01 [3]", "value": 13.2, "unit": "nM"}, {"measurement": "Affinity", "setting": "HLA-A11.01", "value": 974, "unit": "nM"}, {"measurement": "Affinity", "setting": "HLA-A03.01 [4]", "value": 95.9, "unit": "nM"}]}, {"binder": "IMQLMPFGCL", "values": [{"measurement": "Stability (half-life (hr.))", "setting": "HLA-B08.01 [7]", "value": 0, "unit": "h"}]}, {"binder": "VVVGAVGVGK (Endogenously processed RAS G12V peptide eluted from HLA-peptide complexes)", "values": [{"measurement": "binding result", "setting": "[8]", "value": "binds"}]}, {"binder": "LIMQLMPFGC", "values": [{"measurement": "Affinity", "setting": "HLA-A02.01 [9]", "value": 132, "unit": "nM"}, {"measurement": "Stability (half-life (hr.))", "setting": "HLA-A02.01 [10]", "value": 22.9, "unit": "min"}]}, {"binder": "SLLNYLREM", "values": [{"measurement": "Stability (half-life (hr.))", "setting": "HLA-B08.01 [11]", "value": 0, "unit": "h"}, {"measurement": "Affinity", "setting": "HLA-B08.01 [12]", "value": 960, "unit": "nM"}]}, {"binder": "QLIMQLMPF", "values": [{"measurement": "Stability (half-life (hr.))", "setting": "HLA-B08.01 [7]", "value": 0, "unit": "h"}]}, {"binder": "MQLMPFGCLL", "values": [{"measurement": "Stability (half-life (hr.))", "setting": "HLA-B08.01 [7]", "value": 0, "unit": "h"}]}, {"binder": "MQLMPFGCL", "values": [{"measurement": "Stability (half-life (hr.))", "setting": "HLA-B08.01 [7]", "value": 0, "unit": "h"}]}, {"binder": "MANGSLLNYL", "values": [{"measurement": "Stability (half-life (hr.))", "setting": "HLA-B08.01 [11]", "value": 0, "unit": "h"}]}, {"binder": "VQLIMQLMPF (also called VOLIMQLMPF)", "values": [{"measurement": "Stability (half-life (hr.))", "setting": "HLA-B08.01 [7]", "value": 0, "unit": "h"}]}]}
